{
  "source": "patent US20210253709A1",
  "about": "(SUZHOU SMARTNUCLIDE BIOPHARMACEUTICAL, published 2021)",
  "binders": {"B1": {"name": "109-chis (VHH)", "VHH": "QVQLQESGGGSVQAGGSLRLSCTASGFSLDDSDMGWYRQARGNVCQLVSTIASDRSTYYTPSVKGRFTISHDRAKNTIYLQMNSLKPEDTAVYYCAAAPRLAYTTAMTCEGDFAYWGQGTQVTVSS"}, "B2": {"name": "^69,71Ga-NOTA-109-chis (VHH)", "VHH": "QVQLQESGGGSVQAGGSLRLSCTASGFSLDDSDMGWYRQARGNVCQLVSTIASDRSTYYTPSVKGRFTISHDRAKNTIYLQMNSLKPEDTAVYYCAAAPRLAYTTAMTCEGDFAYWGQGTQVTVSS", "modifications": "one or two NOTA groups (from p-SCN-Bn-NOTA) conjugated per molecule, each chelating ^69,71Ga; conjugated lysines not assigned", "notes": "also called chelated products of PD-L1 single domain antibody protein"}, "B3": {"name": "109 heavy-chain single domain antibody (VHH)", "VHH": "QVQLQESGGGSVQAGGSLRLSCTASGFSLDDSDMGWYRQARGNVCQLVSTIASDRSTYYTPSVKGRFTISHDRAKNTIYLQMNSLKPEDTAVYYCAAAPRLAYTTAMTCEGDFAYWGQGTQVTVSS", "notes": "Untagged form"}},
  "key": {"PDL1-Fc fusion protein [1]": {"target": "T1, PDL1-Fc fusion protein (human, UniProt Q9NZQ7 19-238, limits assumed)", "T1 construct": "Transiently expressed in HEK293 and used as the plate coat in the ELISAs; not shown: Fc part", "T1 sequence (Q9NZQ7 19-238 limits assumed)": "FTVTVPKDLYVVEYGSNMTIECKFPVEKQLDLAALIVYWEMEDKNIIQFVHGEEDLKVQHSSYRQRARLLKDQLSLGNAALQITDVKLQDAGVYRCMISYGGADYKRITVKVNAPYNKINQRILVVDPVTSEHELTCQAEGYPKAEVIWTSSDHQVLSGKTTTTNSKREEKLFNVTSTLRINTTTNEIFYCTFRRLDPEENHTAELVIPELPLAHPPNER", "assay": "ELISA, plate coated with PDL1-Fc 0.5 ug/well, detection anti-his-HRP, OD405, 4-parameter fit (Plot1; same fit values as in Figure 2)", "procedure": "(§1) The PDL1-Fc fusion protein was transiently expressed by HEK293 and purified by nickel column affinity chromatography. […] After washing, the anti-his horseradish peroxidase labeled antibody was added and incubated at room temperature for 1 hour. After washing, the developing solution was added, and the absorption value was read at wavelength of 405 nm. Application software SotfMaxPro v5.4 is used for data processing and mapping analysis."}, "PDL1-Fc fusion protein [2]": {"target": "T1, PDL1-Fc fusion protein", "assay": "ELISA, plate coated with PDL1-Fc 0.5 ug/well, detection anti-his-HRP, OD405, 4-parameter fit (Plot2)", "procedure": "as §1"}, "[3]": {"target": "PD-L1 target protein (Biacore ligand) (UniProt Q9NZQ7 19-238, limits assumed)", "sequence (Q9NZQ7 19-238 limits assumed)": "as above", "assay": "SPR (Biacore T200), 25 C, 109 as analyte at 3.125-200 ng/ml", "procedure": "The experimental temperature of Biacore was 25° C. and the injection flow rate was 50 μl/min. The analyte was diluted with the HBS-EP+ buffer to a certain concentration, and was allowed to flow through the blank reference channel and the activated channel in turn. The signal value generated on the blank reference channel reflects the non-specific adsorption of the analyte on the chip, and the signal value generated on the activated channel reflects the specific binding between the analyte and the ligand. The analyte was introduced for 300 s, and then the HBS-EP+ buffer was introduced for 180 s to dissociate the analyte from the ligand. […] Different concentrations of analytes are repeatedly introduced and dissociated."}},
  "data": [
    {"binder": "B1", "values": [
      {"measurement": "EC50", "setting": "PDL1-Fc fusion protein [1]", "value": 2.89, "unit": "ng/mL"}
    ]},
    {"binder": "B2", "values": [
      {"measurement": "EC50", "setting": "PDL1-Fc fusion protein [2]", "value": 3.62, "unit": "ng/mL"}
    ]},
    {"binder": "B3", "values": [
      {"measurement": "Kd", "setting": "[3]", "value": 1.73, "unit": "nM"},
      {"measurement": "koff", "setting": "[3]", "value": 0.000438, "unit": "s⁻¹"},
      {"measurement": "kon", "setting": "[3]", "value": 253000, "unit": "M⁻¹ s⁻¹"}
    ]}
  ]
}
